The target in this experiment is Gal4p BD fused with murine p53 (pGBKT7-53) (murine). Nature of the experiment: two-hybrid.

The results in this text go back to paper PMC3250062.

In the case of “Gal4 AD fused with the SV40 large T-antigen (pGADT7-T) (natural protein)”, the mean GFP fluorescence at 72 hrs amounted to 156, the mean GFP fluorescence at 96 hrs is 116, the percent GFP positive cells turned out to be 69.9% and the percent GFP positive cells at 30-48 hrs fell in the range of 3 to 5%. The substance also registered a percent GFP positive cells at 72 hrs of 23.8% and a percent GFP positive cells at 96 hrs of 23.5%.
